The target in data set [1] is AURKB (UniProt Q96GD4). Nature of the data set: co-precipitation from cells, immunoblot. The note with it: reference: NSFL1C wild type; sites S140. (In general: A western blot detects proteins with antibodies after separation by electrophoresis.)

Like-named read-outs stand apart in the source and are kept apart here.

Turning to AURKB: AURKB-3KR (K31R/K56R/K85R), the enzymatic_activity entry runs as follows: (ubiquitination at K31) “decreases”; (ubiquitination at K56) “decreases”; (ubiquitination at K85) “decreases”. The localisation_or_trafficking result runs as follows: (ubiquitination at K31) “decreases”; (ubiquitination at K56) “decreases”; (ubiquitination at K85) “decreases”.

For “NSFL1C (from UniProt Q9UNZ2) NSFL1C-S140A”, the “binding against the reference” value in data set [1] is given as “weaker”.

Take NSFL1C: NSFL1C-S140A: the other entry (phosphorylation at S140) is recorded as “abolishes”.
